According to patent publication US20220054646A1 (Bicycle, published 2022):
*1 amine or outer side, *2 acyl side, *3 side chain or, on linkers, in order; H or OH if unused. Bridges are numbered along the chain shown (N, C = ends). Where no end group is shown, it is not given here. TBMB = c1c(C[*:1])cc(C[*:3])cc1C[*:2]

B1: 21-31-04-T01-N007 (peptide)
peptide: EVCWDCFMMEDGTCAXXXXXXK
modifications: not fully specified; N-terminal acetyl (Ac); D-residue at the N-terminus (printed (D-E) / (D-Gln)); Sar6 = six sarcosine residues; C-terminal D-Lys; Ci, Cii and Ciii cyclised with TBMB (tri-substituted 1,3,5-trismethylbenzene scaffold)
notes: Bicyclic peptide on TBMB scaffold

Experiments:
[1] = target: T1, Prostate-specific membrane antigen (PSMA) (human, UniProt Q04609 44-750, limits assumed); experiment: fluorescence polarization assay, FP(h), PSMA
T1 construct: the construct used in the fluorescence polarization and enzyme assays is not described (methods cited from Shen et al 2013 and WO 2009/070302); also called Glutamate carboxypeptidase II; GCPII
Procedure: PSMA binding was measured using the fluorescence polarization assay methodology described in Shen et al (2013) PLOS ONE 8(7), e68339 and PSMA enzyme inhibition was measured using the methodology described in WO 2009/070302.

[2] = target: T1, Prostate-specific membrane antigen …; experiment: cell-based or functional assay

T1 sequence (Q04609 44-750 limits assumed): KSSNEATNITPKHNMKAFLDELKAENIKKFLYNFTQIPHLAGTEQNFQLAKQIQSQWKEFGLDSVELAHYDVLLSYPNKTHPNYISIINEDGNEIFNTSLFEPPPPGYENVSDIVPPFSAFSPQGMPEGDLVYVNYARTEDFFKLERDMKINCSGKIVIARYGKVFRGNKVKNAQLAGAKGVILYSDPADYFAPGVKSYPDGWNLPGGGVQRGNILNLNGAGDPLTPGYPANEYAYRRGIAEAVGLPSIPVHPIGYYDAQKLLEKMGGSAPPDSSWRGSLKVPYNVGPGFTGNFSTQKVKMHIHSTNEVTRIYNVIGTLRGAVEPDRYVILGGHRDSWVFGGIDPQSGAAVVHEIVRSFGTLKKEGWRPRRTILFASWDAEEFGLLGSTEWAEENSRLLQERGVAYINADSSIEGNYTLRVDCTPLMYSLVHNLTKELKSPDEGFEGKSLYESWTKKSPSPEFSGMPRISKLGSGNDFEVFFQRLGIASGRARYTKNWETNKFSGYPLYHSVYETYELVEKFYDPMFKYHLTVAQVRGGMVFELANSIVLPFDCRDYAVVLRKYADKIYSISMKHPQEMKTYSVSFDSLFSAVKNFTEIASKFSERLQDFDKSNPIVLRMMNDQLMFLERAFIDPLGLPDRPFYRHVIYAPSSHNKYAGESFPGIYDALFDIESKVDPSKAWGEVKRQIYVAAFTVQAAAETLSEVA

Binder | Ki [1] [nM] | Enzyme inhibition IC50 [2] [nM]
CIECYIMEDGTCA (linker 1-4-12 via TBMB (inferred), Bicyclic peptide on TBMB scaffold) [21-31-01-N001] | 70 | 
FCSECYMMEDGTCA (linker 2-5-13 via TBMB (inferred), Bicyclic peptide on TBMB scaffold) [21-31-11-T01-N001] | 6 | 
B1 | 30 | 
ACMVCHMMEDGTCA (linker 2-5-13 via TBMB (inferred), Bicyclic peptide on TBMB scaffold) [21-31-N002] | 40 | 695
